These are literature values, as cited in publication doi:10.1101/2025.05.21.655333.

For this data set, the target named is Lys287 (UniProt position 287, GGQGLKILIHV). Description: kinetics. Conditions: The kcat/Km profile reports on free enzyme and free substrate.

What is called pKa is the negative logarithm of the acid dissociation constant. For “L-6-hydroxynicotine oxidase (Pyridine-LHNO) (Paenarthrobacter nicotinovorans)”, the pKa is reported as 9.7.
